Assay results published in PMC11947619, “Molecular mechanism of Mad2 conformational conversion promoted by the Mad2‐interaction motif of Cdc20” (Protein Science : A Publication of the Protein Society, 2025).
Values belong to the molecule of their own block, whether it stands above or below them.

What was measured:
O‐Mad2^R133A = molecular target: T1, O‐Mad2^R133A (Homo sapiens, UniProt Q13257, R133A); assay: Time-resolved NMR: O-Mad2 to C-Mad2 conversion of O-Mad2^R133A with MIM peptides; format: biochemical; details: 100 μM O-Mad2^R133A, 25°C
T1 construct: unable to collect equivalent data for full‐length O‐Mad2^R133A; His6-DoubleStrep-TEV (N); made in house
Experimental: FIGURE 2 NMR fingerprinting of Mad2. (a) Structural orientations of Trp75 (on the αB helix) and Trp167 (on the “safety‐belt”) in Mad2 produce distinct indole NH resonances. […] NMR spectra for O‐Mad2^R133A and “empty” C‐Mad2^L13A/R133A and C‐Mad2^R133A:Cdc20^MIM‐111‐138 are from Fischer et al. ([2022]) (c) Mad2 conversion rates vary with different MIM peptides. Conversion was traced over 24 h at 25°C using the Trp75 and Trp167 side‐chain resonances as reporters. MIM peptides were added at two‐fold molar excess to Mad2 (100 μM). Each spectrum required 12 min of acquisition time, therefore the 15 min time‐points represent the earliest spectra in the time‐resolved series. The schematics show the conformation of Mad2 as indicated by the tryptophan side‐chain resonances. A black tick marks when conversion is considered complete. NMR data for O‐Mad2^R133A with and without Cdc20^MIM‐111‐138 shown are from Fischer et al. ([2022]). In the case of full‐length Cdc20, the MIM sequence is sequestered by an auto‐inhibitory intramolecular interaction within Cdc20 itself, which prevents it from being readily accessible for binding to C‐Mad2 (Piano et al., [2021]). Conversely, isolated MIM peptides lack this auto‐inhibitory mechanism, allowing them to bind directly to C‐Mad2 without obstruction.
To understand whether Mad2 conversion times are modulated by different C‐Mad2 ligands, we used time‐resolved NMR to determine the conversion time of 100 μM O‐Mad2^R133A at 25°C. The indole NH resonances of Trp75 and Trp167 were used as reporters (Figure 2b). […] In contrast, conversion took ~24 h in the absence of Cdc20^MIM‐111‐138 peptide (Fischer et al., [2022]) (Figures 2c and S4b). […] Other MIM peptides also accelerated the O‐Mad2 to C‐Mad2 conversion. […] In “empty” C‐Mad2, the β7/β8 hairpin is displaced to expose the β6 strand for pairing with the MIM peptide (Luo et al., [2004]) (Figure S3a).
Mad2 constructs were expressed in BL21 Star (DE3) cells (Thermo Fisher Scientific), co‐transformed with a pRARE plasmid (Merck). Uniformly labeled proteins were expressed in M9 minimal media (6 g/L Na2HPO4, 3 g/L KH2PO4, 0.5 g/L NaCl) supplemented with 1.7 g/L yeast nitrogen base without NH4Cl and amino acids (Sigma Y1251). 1 g/L ^15NH4Cl and 4 g/L glucose were supplemented for ^15N labeling. For ^13C/^15N double‐labeled samples, unlabeled glucose was replaced with 3 g/L ^13C‐glucose. Protein expression was induced with 0.4 mM IPTG at 16°C overnight. All samples were purified as previously described (Luo & Yu, [2005]; Mapelli et al., [2007]) and all O‐Mad2 variants were kept at 4°C during purification to prevent conversion to C‐Mad2. Prior to all NMR experiments, proteins were dialyzed into 20 mM HEPES, pH 7.0, 100 mM NaCl, 1 mM TCEP. ^13C/^15N‐labeled samples were used for backbone assignment, and all other experimental data were acquired on ^15N‐labeled samples. Proteins were kept on ice before NMR experiments to ensure all O‐Mad2 remained in the open state. For “bound” C‐Mad2, MIM peptides were added in 1:2 molar excess to ensure complete conversion.
All peptides were synthesized by Cambridge Research Biochemicals, UK. Peptides were dialyzed into 20 mM HEPES, pH 7.0, 100 mM NaCl, and 1 mM TCEP for NMR experiments. The sequences for the peptides used in this study are: Cdc20^MIM‐111‐138 ([…]), Cdc20^MIM‐123‐137 (FDVEEAKILRLSGKP), Cdc20^MIM‐123‐152 ([…]), Cdc20^MIM‐138‐152 (QNAPEGYQNRLKVLY), Mad1^MIM‐529‐550 ([…]), and MBP1^MIM (SWYSYPPPQRAV). […]

O‐Mad2 = details: NMR; ref Luo et al., [2004]; cited from earlier work
Experimental: To understand whether Mad2 conversion times are modulated by different C‐Mad2 ligands, we used time‐resolved NMR to determine the conversion time of 100 μM O‐Mad2^R133A at 25°C. The indole NH resonances of Trp75 and Trp167 were used as reporters (Figure 2b). […] In contrast, conversion took ~24 h in the absence of Cdc20^MIM‐111‐138 peptide (Fischer et al., [2022]) (Figures 2c and ...

[1] = cited from earlier work
Experimental: In contrast, conversion took ~24 h in the absence of Cdc20^MIM‐111‐138 peptide (Fischer et al., [2022]) (Figures 2c and ...

[2] = experimentally determined; ref Zhao et al., [2016]; cited from earlier work
C‐Mad2 = details: phage-display selected MIM peptide; ref Luo et al., [2002]; cited from earlier work
Mad2^∆β7/β8 = details: ref Yang et al., [2008]; cited from earlier work
Text: We reasoned that MIM binding to Mad2 is blocked until the β7/β8 hairpin is displaced (Figure 3c,d). To test this hypothesis, we generated a Mad2 variant with a deleted β7/β8 hairpin (Mad2^∆β7/β8: residues 1–165) (Figure 3e). Mad2^∆β7/β8 adopted a stable globular fold, and due to the absence of the C‐terminal residues, it was unable to adopt a closed conformation (Figure 3f). […] This is in agreement with a previous study that showe ...

Mad2^R133A = molecular target: T2, Mad2^R133A (human, UniProt Q13257 1-205, R133A); assay: time-resolved NMR (series of 2D 1H,15N HSQC spectra); 100 μM 15N Mad2 variant, MIM peptide at two-fold molar excess, 25°C, 20 mM HEPES pH 7.0, 100 mM NaCl, 1 mM TCEP, 5% D2O; Trp75 and Trp167 indole NH resonances as reporters of the ligand-bound closed state; 12 min per spectrum, up to 24 h; details: both partners purified
T2 construct: Mad2, human, full-length, R133A; Tag is followed by a TEV site; 15N-labelled for NMR; Starts in the open state; also called O-Mad2^R133A; C-Mad2^R133A; source: E. coli BL21 Star (DE3) with pRARE, purified

human wild-type Mad2 = molecular target: T3, human wild-type Mad2 (human, UniProt Q13257 1-205); assay: SEC; excess of Mad1^MIM peptide added to O-Mad2^WT, complex purified by size-exclusion chromatography; details: both partners purified
T3 construct: Mad2, human, wild type; limits follow from Mad2^Δβ7/β8 (residues 1-165), made from this construct by deleting residues 166-205; Tag is followed by a TEV site; 15N-labelled for NMR; Expressed and kept cold as the open state (O-Mad2); Construct described in Fischer et al. 2022; also called Mad2^WT; O-Mad2^WT; source: E. coli BL21 Star (DE3) with pRARE, purified

Mad2^LL/R133A = molecular target: T4, Mad2^LL/R133A (human, UniProt Q13257 1-205, residues 109–117 (TAKDDSAPR) with GSG | R133A); assay: time-resolved NMR (series of 1H,15N SOFAST-HMQC spectra, residue conversion rates); 200 μM Mad2 variant, 950 MHz, 25°C, 500 spectra of 5 min over 42 h; disappearance of O-Mad2 and appearance of C-Mad2:Cdc20^MIM backbone resonances; details: both partners purified
T4 construct: Mad2, human; Mad2^LL construct (residues 109-117 replaced by GSG) with Ala for Arg133; numbers count on wild-type Mad2; Tag is followed by a TEV site; also called O-Mad2^LL/R133A; source: E. coli BL21 Star (DE3) with pRARE, purified

Mad2^LL = molecular target: T5, Mad2^LL (human, UniProt Q13257 1-205, residues 109–117 (TAKDDSAPR) with GSG); assay: time-resolved NMR (series of 2D 1H,15N HSQC spectra); 100 μM 15N Mad2 variant, MIM peptide at two-fold molar excess, 25°C, 20 mM HEPES pH 7.0, 100 mM NaCl, 1 mM TCEP, 5% D2O; Trp75 and Trp167 indole NH resonances as reporters of the ligand-bound closed state; 12 min per spectrum, up to 24 h; details: both partners purified
T5 construct: Mad2, human; wild-type construct with residues 109-117 of the β5-αC loop replaced by GSG; Tag is followed by a TEV site; also called loop-less Mad2 mutant; O-Mad2^LL; source: E. coli BL21 Star (DE3) with pRARE, purified

Mad2^L13A/R133A = molecular target: T6, Mad2^L13A/R133A (human, UniProt Q13257 1-205, L13A | R133A); assay: as above; details: both partners purified
T6 construct: Mad2, human, full-length, L13A and R133A; made from the Mad2^R133A mutant; Adopts the closed state without ligand; Tag is followed by a TEV site; also called “empty” C-Mad2; C-Mad2^L13A/R133A; source: E. coli BL21 Star (DE3) with pRARE, purified
T6 sequence (Q13257 whole entry L13A/R133A): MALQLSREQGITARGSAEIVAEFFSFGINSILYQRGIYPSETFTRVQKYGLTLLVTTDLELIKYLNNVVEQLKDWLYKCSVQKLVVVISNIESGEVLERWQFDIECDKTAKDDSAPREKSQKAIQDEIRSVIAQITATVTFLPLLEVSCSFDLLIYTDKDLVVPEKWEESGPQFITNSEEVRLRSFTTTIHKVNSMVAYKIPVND

T2 sequence (Q13257 whole entry R133A): as the sequence (Q13257 whole entry L13A/R133A) above, with A13L counted along it
T1 sequence (Q13257 whole entry R133A): as the sequence (Q13257 whole entry L13A/R133A) above, with A13L counted along it
T3 sequence (Q13257 whole entry, the tested form may be a part): as the sequence (Q13257 whole entry L13A/R133A) above, with A13L, A133R counted along it
T5 sequence (Q13257 other isoform, or with tags, fused parts or gaps with the stated changes): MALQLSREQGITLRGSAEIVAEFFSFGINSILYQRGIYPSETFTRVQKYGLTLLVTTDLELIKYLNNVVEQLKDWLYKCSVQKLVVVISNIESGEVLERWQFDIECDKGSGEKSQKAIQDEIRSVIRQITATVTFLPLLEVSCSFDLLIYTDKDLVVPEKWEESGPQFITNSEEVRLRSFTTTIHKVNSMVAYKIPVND
T4 sequence (Q13257 other isoform, or with tags, fused parts or gaps with the stated changes): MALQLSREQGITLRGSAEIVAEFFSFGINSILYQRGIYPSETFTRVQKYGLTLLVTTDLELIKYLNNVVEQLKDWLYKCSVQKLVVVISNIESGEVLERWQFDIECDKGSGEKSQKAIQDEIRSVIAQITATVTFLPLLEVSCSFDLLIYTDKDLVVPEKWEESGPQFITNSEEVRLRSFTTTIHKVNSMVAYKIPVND

Molecule: FDVEEAKILRLSGKP [Cdc20^MIM‐123‐137, Cdc20^MIM spanning residues 123–137]
Mad2 conversion rate/efficiency, in words (O‐Mad2^R133A; time-resolved NMR, compared with other Cdc20^MIM peptides): triggered Mad2 conversion at a similar rate as Cdc20^MIM‐111‐138

Molecule: Mad1 residues 540–551: Mad1 residues 540–551, earlier NMR study (Luo et al., [2004]) (TKVLHMSLNPTS; UniProt Q9Y6D9 540-551, looked up, fragment)
effect on O-Mad2 to C-Mad2 conversion, in words (O‐Mad2): facilitate this conversion

Molecule: O‐Mad2: Mad2 in the open inactive state
t1/2 of intrinsic O-Mad2 to C-Mad2 conversion, in words ([1]; in solution, ref Faesen et al., [2017], Lad et al., [2009], Luo et al., [2004], Simonetta et al.): multiple hours
melting temperature [2]: 69 °C

Molecule: O‐Mad2^R133A: dimerization‐deficient mutant Mad2^R133A in its open state
spontaneous conversion time to "empty" C-Mad2 ([1]; 100 μM, 25°C, absence of Cdc20^MIM-111-138 peptide, ref Fischer et al., [2022]): ~ 24 h

time to complete Mad2 conversion (O‐Mad2^R133A; two-fold molar excess peptide, 20 mM HEPES pH 7.0, 100 mM NaCl, 1 mM TCEP, 5% D2O, Trp75/Trp167 indole NH reporters, 12 min per spectrum): ≤ 60 min
Molecule: SWYSYPPPQRAV [MBP1^MIM]
C-Mad2 affinity, in words (C‐Mad2): enhanced C‐Mad2 affinity
interaction with Mad2^∆β7/β8, in words (Mad2^∆β7/β8): weak interaction

binding result (Mad2^R133A): binds
B1: Cdc20^MIM-123-137 (peptide)
peptide: FDVEEAKILRLSGKP
notes: source: synthetic peptide (Cambridge Research Biochemicals)

binding result (Mad2^R133A): binds
binding result (human wild-type Mad2): binds
B2: Mad1^MIM-529-550 (peptide)
peptide: RALQGDYDQSRTKVLHMSLNPT
notes: as for B1

binding result (Mad2^R133A): binds
binding result (Mad2^LL/R133A): binds
B3: Cdc20^MIM-123-152 (peptide)
peptide: FDVEEAKILRLSGKPQNAPEGYQNRLKVLY
notes: also called MIM peptide; source: synthetic peptide (Cambridge Research Biochemicals)

binding result (Mad2^LL): binds
binding result (Mad2^L13A/R133A): binds
B4: Cdc20^MIM-111-138 (peptide)
peptide: EHQKAWALNLNGFDVEEAKILRLSGKPQ
notes: as for B1

binding result (Mad2^R133A): binds
B5: MBP1^MIM (peptide)
peptide: SWYSYPPPQRAV
notes: as for B1
